Experiment: Systemic delivery of calcitonin as model peptide following dosing with the Spiros system, compared to subcutaneous injection
Type: in vivo
Conditions: calcitonin/lactose blend, estimated
Text: 5. Using calcitonin as a model peptide for systemic delivery, the bioactivity following dosing with the Spiros system has been estimated to be greater than 20% compared to a subcutaneous injection.

## calcitonin
  bioactivity following dosing with the Spiros system compared to a subcutaneous injection (systemic availability): greater than 20%
